Experimental data as given in paper PMC9537944, “eIF4G1 N-terminal intrinsically disordered domain is a multi-docking station for RNA, Pab1, Pub1, and self-assembly” (Frontiers in Molecular Biosciences, 2022).

What was measured:
[1] = molecular target: the molecule itself; assay: NMR paramagnetic relaxation enhancement (intermolecular PRE); 15N-labelled wild-type eIF4G1 1-249 mixed 1:1 with TEMPO spin-labelled eIF4G1 1-249 Q109C at natural isotopic abundance; intensity ratios of 1H-15N HSQC peaks, oxidised against ascorbate-reduced label; 25 mM potassium phosphate pH 6.5, 25 mM NaCl, 1 mM DTT
[2] = molecular target: T1, eIF4G1 1-82 (Saccharomyces cerevisiae, UniProt P39935 1-82); assay: NMR (1H-15N HSQC titration); shifts centered at R34, R55, G65; new Arg side-chain NeHe signal; NMR: 25 mM potassium phosphate pH 6.5, 25 or 150 mM NaCl, 1 mM DTT, 10% D2O, 25 C, 800 MHz (general NMR conditions; not stated specifically for RNA titrations); settings: protein: recombinant; tags: N-terminal gs left after TEV cleavage of TrxA-6xHis; single strand
T1 sequence: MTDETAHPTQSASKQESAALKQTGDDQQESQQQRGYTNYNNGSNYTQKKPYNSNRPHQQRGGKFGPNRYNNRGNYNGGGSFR

B1: eIF4G1_(1-249), N-terminal intrinsically disordered region of eIF4G1 (domain or fragment, Saccharomyces cerevisiae, UniProt P39935 1-249, looked up)
chain: MTDETAHPTQSASKQESAALKQTGDDQQESQQQRGYTNYNNGSNYTQKKPYNSNRPHQQRGGKFGPNRYNNRGNYNGGGSFRGGHMGANSSNVPWTGYYNNYPVYYQPQQMAAAGSAPANPIPVEEKSPVPTKIEITTKSGEHLDLKEQHKAKLQSQERSTVSPQPESKLKETSDSTSTSTPTPTPSTNDSKASSEENISEAEKTRRNFIEQVKLRKAALEKKRKEQLEGSSGNNNIPMKTTPENVEEK
notes: 15N-labelled where it was the observed partner; Minor isoaspartate forms (12%-14%) are reported at positions 41 and 76; In the intermolecular PRE experiment the second copy was the Q109C mutant carrying a TEMPO spin label; also called eIF4G1 IDR; not shown: thioredoxin A, N-terminal, cleaved; 6xHis, internal (between thioredoxin A and the TEV site), cleaved
binding result [1]: binds

AAAAAAAAAAAAAA (ssRNA) [A14]
binding result [2]: binds
